From article PMC7233526 (Biochemistry, 2020) come the findings set out here.

T1: full-length rat Adrenodoxin (Adx), wild type (rat, UniProt P24483 65-188)
T1 sequence (looked up): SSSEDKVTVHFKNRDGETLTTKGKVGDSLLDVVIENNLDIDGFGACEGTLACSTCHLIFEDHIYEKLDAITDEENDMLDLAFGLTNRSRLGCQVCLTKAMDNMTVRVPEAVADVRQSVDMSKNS

B1: rat Adrenodoxin L80Q (natural protein, UniProt P24483 65-188, looked up)
chain: T1 sequence (looked up) with L80Q
B2: rat CYP24A1 (cytochrome P450 24A1), S57D, without the 32 residue leader sequence (enzyme, UniProt Q09128 33-514, looked up)
chain: SASRAPKEVPLCPLMTDGETRNVTDLPGPTNWPLLGSLLEIFWKGGLKKQHDTLAEYHKKYGQIFRMKLGSFDSVHLGSPSLLEALYRTESAHPQRLEIKPWKAYRDHRNEAYGLMILEGQEWQRVRSAFQKKLMKPVEIMKLDKKINEVLADFLERMDELCDERGRIPDLYSELNKWSFESICLVLYEKRFGLLQKETEEEALTFITAIKTMMSTFGKMMVTPVELHKRLNTKVWQAHTLAWDTIFKSVKPCIDNRLQRYSQQPGADFLCDIYQQDHLSKKELYAAVTELQLAAVETTANSLMWILYNLSRNPQAQRRLLQEVQSVLPDNQTPRAEDLRNMPYLKACLKESMRLTPSVPFTTRTLDKPTVLGEYALPKGTVLTLNTQVLGSSEDNFEDSHKFRPERWLQKEKKINPFAHLPFGIGKRMCIGRRLAELQLHLALCWIIQKYDIVATDNEPVEMLHLGILVPSRELPIAFRPR

Changes are numbered by the printed parent chain. Numbers in names are those of the source.

In test [1] the target is B2. Description: NMR titration.
The target of test [2] is T1, full-length rat Adrenodoxin (Adx), wild …. Description: cross-linking.

In general, stoichiometry N refers to a count of units in the complex or per binding partner.

Take B1: the binding result in test [1] was “binds”.

In the case of B2, the “stoichiometry N” value in test [2] was 1.
